{"source": "patent US11505576B2", "about": "“Polypeptides based on a scaffold” (AFFIBODY AB, priority 2018, dated 2022)", "key": {"insulin": {"target": "T1, insulin (Homo sapiens, UniProt P01308)", "T1 construct": "purchased Roche 1376497", "T1 sequence (P01308 25-54 limits assumed)": "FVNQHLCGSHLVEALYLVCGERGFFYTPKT", "T1 sequence (P01308 90-110 limits assumed)": "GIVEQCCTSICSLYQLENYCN", "experiment": "Kinetic analysis using surface plasmon resonance (Biacore T200), immobilized insulin", "type": "binding", "settings": "MGSSHHHHHHGSS-[Y#####]", "protocol": "Kinetic constants (ka and kd) and affinities (KD) were determined for His6-tagged Y variants using a Biacore T200 instrument (GE Healthcare). Target proteins C4, IL-6 and insulin, respectively, were immobilized in separate flow cells on the carboxylated dextran layer of different CM5 chip surfaces (GE Healthcare). Immobilization was performed using amine coupling chemistry according to the manufacturer's protocol and PBS pH 7.4 supplemented with 0.1 Tween20 (PBST 0.1%) as running buffer. The ligand immobilization levels on the surfaces were 3280-8830 RU for C4, 495-1184 RU for IL-6, and 270-282 RU for insulin. One flow cell surface on each chip was activated and deactivated for use as blank during analyte injections. In the kinetic experiment, PBST 0.1% was used as running buffer at a flow rate of 30 μl/min. The analytes, i.e. Y variants, were each diluted in PBST 0.1 buffer at concentrations of 1000, 500, 100, 50 and 10 nM and injected for 5 min, followed by dissociation in running buffer for 3 min. After dissociation, the surfaces were regenerated with one injection of 30 μl 10 mM HCl. Kinetic constants were calculated from the sensorgrams using the Langmuir 1:1 model of Biacore T200 Evaluation software 2.0 (GE Healthcare).\n(§1) Produced Y variants were subjected to CD and SPR analyses according to the methods described in Example 1.\n(§2) The Y variants were cloned, produced and characterized according to the general methods described in Example 1. Produced Y variants with point mutations and/or N-terminal or C-terminal extensions were subjected to CD and SPR analyses as described in Example 1.\n(§3) Produced Y variants were subjected to CD and SPR analyses according to the methods described in Example 1. In addition, CD spectra of selected IL-6 binding variants were also recorded at 60, 70, 80 and 90° C.\n(§4) The Y variants were cloned, produced and characterized according to the general methods described in Example 1. Produced Y variants with point mutations were subjected to CD and SPR analyses as described in Example 1. In addition, CD spectra of the IL-6 binding variants were also recorded at 60, 70, 80 and 90° C."}, "[1]": {"experiment": "Circular dichroism spectroscopy analysis (CD spectra, variable temperature measurement, refolding)", "type": "physicochemical", "protocol": "The respective Y variant was diluted to 0.5 mg/ml in PBS. A CD spectrum at 250-195 nm was obtained at 20° C. In addition, a variable temperature measurement (VTM) was performed to determine the melting temperature (Tm). In the VTM, absorbance was measured at 221 nm while the temperature was raised from 20° C. to 90° C. with a temperature gradient of 5° C./min. A new CD spectrum was obtained at 20° C. after the heating procedure, in order to study the refolding ability of the Y variants. The CD measurements were performed on a Jasco J-810 spectropolarimeter (Jasco Scandinavia AB) using a cell with an optical path length of 1 mm.\nas §1, §2, §3, §4"}, "[2]": {"experiment": "Fraction of soluble product on expression in E. coli, estimated from SDS-PAGE", "type": "physicochemical", "settings": "for Est soluble fraction: Table 9, mutation study 5", "protocol": "E. coli T7E2 cells were transformed with plasmids containing the gene fragment of each respective Y variant. The resulting recombinant strains were generally cultivated in media supplemented with 50 μg/ml kanamycin at 30-37° C. in 50 ml scale using the EnPresso protocol (Enpresso GmbH). In order to induce protein expression, isopropyl-β-D-1-thiogalactopyranoside (IPTG) was added to a final concentration of 0.5 mM at an optical density at 600 nm (OD600) of approximately 10. After induction, the cultures were incubated for 16 h. The cells were harvested by centrifugation. Alternatively, the culture was performed at 37° C. in 980 ml of TSB-YE medium (tryptic soy broth 30 g/l supplemented with yeast extract 5 g/l) supplemented with 50 μg/ml kanamycin, and protein expression induced with 0.2 mM IPTG at OD600=2, followed by incubation for 5 h before harvesting of the cells by centrifugation. The total yield as well as the fraction of soluble and insoluble product of the respective Y variant was estimated based on SDS-PAGE analysis."}, "[3]": {"settings": "Table 3, mutation study 1, MGSSHHHHHHGSS-[Y#####]"}, "[4]": {"settings": "Table 4, mutation study 2, MGSSHHHHHHGSS-[Y#####]"}, "[5]": {"settings": "Table 8, mutation study 4, MGSSHHHHHHGSS-[Y#####]"}, "[6]": {"settings": "Table 9, mutation study 5, MGSSHHHHHHGSS-[Y#####]-A"}}}
{"substance": "Y00275: insulin binding Y variant, Y00032 with E39Q, SEQ ID NO:122 (LAEAKEAAIAELDSKGVGAYQKSFIELAKSVEHVELLKQAILADLP; Engineered insulin binding Y variant)", "values": [{"measurement": "Kd", "setting": "insulin; Table 3, mutation study 1", "result": 59, "unit": "nM"}, {"measurement": "Tm", "setting": "[1]; [3]", "result": 54, "unit": "°C"}]}
{"substance": "Y00276: insulin binding Y variant, Y00032 with A43K, SEQ ID NO:123 (LAEAKEAAIAELDSKGVGAYQKSFIELAKSVEHVELLKEAILKDLP; Engineered insulin binding Y variant)", "values": [{"measurement": "Kd", "setting": "insulin; Table 3, mutation study 1", "result": 76, "unit": "nM"}, {"measurement": "Tm", "setting": "[1]; [3]", "result": 50, "unit": "°C"}]}
{"substance": "Y00292: insulin binding Y variant, Y00032 with S23K + E35Q + E39Q, SEQ ID NO:124 (LAEAKEAAIAELDSKGVGAYQKKFIELAKSVEHVQLLKQAILADLP; Engineered insulin binding Y variant)", "values": [{"measurement": "Kd", "setting": "insulin; Table 4, mutation study 2", "result": 450, "unit": "nM"}, {"measurement": "Tm", "setting": "[1]; [4]", "result": 57, "unit": "°C"}]}
{"substance": "Y00293: insulin binding Y variant, Y00270 with E35Q + E39Q, SEQ ID NO:125 (LAEAKEAAIAELDSKGVGAYQIKFIELAKSVEHVQLLKQAILADLP; Engineered insulin binding Y variant)", "values": [{"measurement": "Kd", "setting": "insulin; Table 4, mutation study 2", "result": 490, "unit": "nM"}, {"measurement": "Tm", "setting": "[1]; [4]", "result": 56, "unit": "°C"}]}
{"substance": "Y00294: insulin binding Y variant, Y00270 with E35Q + A43K, SEQ ID NO:126 (LAEAKEAAIAELDSKGVGAYQIKFIELAKSVEHVQLLKEAILKDLP; Engineered insulin binding Y variant)", "values": [{"measurement": "Kd", "setting": "insulin; Table 4, mutation study 2", "result": 490, "unit": "nM"}, {"measurement": "Tm", "setting": "[1]; [4]", "result": 54, "unit": "°C"}]}
{"substance": "Y00295: insulin binding Y variant, Y00270 with E35Q + E39Q + A43K, SEQ ID NO:127 (LAEAKEAAIAELDSKGVGAYQIKFIELAKSVEHVQLLKQAILKDLP; Engineered insulin binding Y variant)", "values": [{"measurement": "Kd", "setting": "insulin; Table 4, mutation study 2", "result": 580, "unit": "nM"}, {"measurement": "Tm", "setting": "[1]; [4]", "result": 52, "unit": "°C"}]}
{"substance": "Y00356: insulin binding Y variant, SEQ ID NO:140, template of mutation study 4 (LAEAKEAAIAELDSKGVGAKYIKMIQHAHYVEVVQWLKQAILAHLP; Engineered insulin binding Y variant)", "values": [{"measurement": "Estimated soluble fraction", "setting": "[2]; [5]", "result": 43, "unit": "%"}, {"measurement": "Tm", "setting": "[1]; [5]", "result": 57, "unit": "°C"}]}
{"substance": "Y02310: C4 binding Y variant from Ylib002Naive.I, SEQ ID NO:36 (LAEAKEAAIAELDSKGVGADLIKKIQYADTVEGVQFWKQEILAWLPA; Engineered C4 binding Y variant)", "values": [{"measurement": "Estimated soluble fraction", "setting": "[2]; Table 7, Ylib002Naive.I selection, MGSSHHHHHHGSS-[Y#####]-A", "result": 100, "unit": "%"}, {"measurement": "Tm", "setting": "[1]; Table 7, MGSSHHHHHHGSS-[Y#####]-A", "result": 56, "unit": "°C"}]}
{"substance": "Y02674: insulin binding Y variant, Y00356 with K15Y, SEQ ID NO:146 (LAEAKEAAIAELDSYGVGAKYIKMIQHAHYVEVVQWLKQAILAHLP; Engineered insulin binding Y variant)", "values": [{"measurement": "Estimated soluble fraction", "setting": "[2]; [5]", "result": 40, "unit": "%"}, {"measurement": "Tm", "setting": "[1]; [5]", "result": 55, "unit": "°C"}]}
{"substance": "Y02676: insulin binding Y variant, Y00356 with Q26E, SEQ ID NO:147 (LAEAKEAAIAELDSKGVGAKYIKMIEHAHYVEVVQWLKQAILAHLP; Engineered insulin binding Y variant)", "values": [{"measurement": "Estimated soluble fraction", "setting": "[2]; [5]", "result": 55, "unit": "%"}, {"measurement": "Tm", "setting": "[1]; [5]", "result": 56, "unit": "°C"}]}
{"substance": "Y02683: insulin binding Y variant, Y00356 with I9L, SEQ ID NO:148 (LAEAKEAALAELDSKGVGAKYIKMIQHAHYVEVVQWLKQAILAHLP; Engineered insulin binding Y variant)", "values": [{"measurement": "Estimated soluble fraction", "setting": "[2]; [5]", "result": 92, "unit": "%"}]}
{"substance": "Y02685: C4 binding Y variant, Y00792 with I9L, SEQ ID NO:40 (LAEAKEAALAELDSKGVGADLIKKIQQASSVEGVQFWKQEILAQLPA; Engineered C4 binding Y variant)", "values": [{"measurement": "Est soluble fraction", "setting": "[2]; MGSSHHHHHHGSS-[Y#####]-A", "result": 100, "unit": "%"}, {"measurement": "Tm", "setting": "[1]; [6]", "result": 53, "unit": "°C"}]}
{"substance": "Y02686: C4 binding Y variant, Y00792 with K15Y, SEQ ID NO:41 (LAEAKEAAIAELDSYGVGADLIKKIQQASSVEGVQFWKQEILAQLPA; Engineered C4 binding Y variant)", "values": [{"measurement": "Est soluble fraction", "setting": "[2]; MGSSHHHHHHGSS-[Y#####]-A", "result": 100, "unit": "%"}, {"measurement": "Tm", "setting": "[1]; [6]", "result": 59, "unit": "°C"}]}
{"substance": "Y02687: C4 binding Y variant, Y00792 with Q26E, SEQ ID NO:42 (LAEAKEAAIAELDSKGVGADLIKKIEQASSVEGVQFWKQEILAQLPA; Engineered C4 binding Y variant)", "values": [{"measurement": "Est soluble fraction", "setting": "[2]; MGSSHHHHHHGSS-[Y#####]-A", "result": 100, "unit": "%"}, {"measurement": "Tm", "setting": "[1]; [6]", "result": 57, "unit": "°C"}]}
